Literature values as cited in PMC10249258.

Biological target: CD155 (Homo sapiens) (UniProt P15151)

Kd: 2 nM
Substance: TIGIT (from UniProt Q495A1)
